Assay results as given in article PMC2114693 (The Journal of Cell Biology, 1987).
Several values for one entry are separate records, joined by “and”; a condition that tells them apart may be missing. Equal values may be shown once.

B1: adducin-actin complex (complex)
chain 1: MNGDSRAAVVTSPPPTTAPHKERYFDRVDENNPEYLRERNMAPDLRQDFNMMEQKKRVSMILQSPAFCEELESMIQEQFKKGKNPTGLLALQQIADFMTTNVPNVYPAAPQGGMAALNMSLGMVTPVNDLRGSDSIAYDKGEKLLRCKLAAFYRLADLFGWSQLIYNHITTRVNSEQEHFLIVPFGLLYSEVTASSLVKINLQGDIVDRGSTNLGVNQAGFTLHSAIYAARPDVKCVVHIHTPAGAAVSAMKCGLLPISPEALSLGEVAYHDYHGILVDEEEKVLIQKNLGPKSKVLILRNHGLVSVGESVEEAFYYIHNLVVACEIQVRTLASAGGPDNLVLLNPEKYKAKSRSPGSPVGEGTGSPPKWQIGEQEFEALMRMLDNLGYRTGYPYRYPALREKSKKYSDVEVPASVTGYSFASDGDSGTCSPLRHSFQKQQREKTRWLNSGRGDEASEEGQNGSSPKSKTKWTKEDGHRTSTSAVPNLFVPLNTNPKEVQEMRNKIREQNLQDIKTAGPQSQVLCGVVMDRSLVQGELVTASKAIIEKEYQPHVIVSTTGPNPFTTLTDRELEEYRREVERKQKGSEENLDEAREQKEKSPPDQPAVPHPPPSTPIKLEEDLVPEPTTGDDSDAATFKPTLPDLSPDEPSEALGFPMLEKEEEAHRPPSPTEAPTEASPEPAPDPAPVAEEAAPSAVEEGAAADPGSDGSPGKSPSKKKKKFRTPSFLKKSKKKSDS
chain 2: MSEETVPEAASPPPPQGQPYFDRFSEDDPEYMRLRNRAADLRQDFNLMEQKKRVTMILQSPSFREELEGLIQEQMKKGNNSSNIWALRQIADFMASTSHAVFPTSSMNVSMMTPINDLHTADSLNLAKGERLMRCKISSVYRLLDLYGWAQLSDTYVTLRVSKEQDHFLISPKGVSCSEVTASSLIKVNILGEVVEKGSSCFPVDTTGFCLHSAIYAARPDVRCIIHLHTPATAAVSAMKWGLLPVSHNALLVGDMAYYDFNGEMEQEADRINLQKCLGPTCKILVLRNHGVVALGDTVEEAFYKIFHLQAACEIQVSALSSAGGVENLILLEQEKHRPHEVGSVQWAGSTFGPMQKSRLGEHEFEALMRMLDNLGYRTGYTYRHPFVQEKTKHKSEVEIPATVTAFVFEEDGAPVPALRQHAQKQQKEKTRWLNTPNTYLRVNVADEVQRSMGSPRPKTTWMKADEVEKSSSGMPIRIENPNQFVPLYTDPQEVLEMRNKIREQNRQDVKSAGPQSQLLASVIAEKSRSPSTESQLMSKGDEDTKDDSEETVPNPFSQLTDQELEEYKKEVERKKLELDGEKETAPEEPGSPAKSAPASPVQSPAKEAETKSPLVSPSKSLEEGTKKTETSKAATTEPETTQPEGVVVNGREEEQTAEEILSKGLSQMTTSADTDVDTSKDKTESVTSGPMSPEGSPSKSPSKKKKKFRTPSFLKKSKKKEKVES
chain 3: […]
B2: human erythrocyte adducin (complex)
chain 1: B1 chain 1
chain 2: B1 chain 2

What was measured:
[1] = molecular target: human erythrocyte spectrin (human, UniProt P02549;P11277); assay: co-sedimentation
human erythrocyte spectrin, sequence (P02549 whole entry, chain 1 of 2): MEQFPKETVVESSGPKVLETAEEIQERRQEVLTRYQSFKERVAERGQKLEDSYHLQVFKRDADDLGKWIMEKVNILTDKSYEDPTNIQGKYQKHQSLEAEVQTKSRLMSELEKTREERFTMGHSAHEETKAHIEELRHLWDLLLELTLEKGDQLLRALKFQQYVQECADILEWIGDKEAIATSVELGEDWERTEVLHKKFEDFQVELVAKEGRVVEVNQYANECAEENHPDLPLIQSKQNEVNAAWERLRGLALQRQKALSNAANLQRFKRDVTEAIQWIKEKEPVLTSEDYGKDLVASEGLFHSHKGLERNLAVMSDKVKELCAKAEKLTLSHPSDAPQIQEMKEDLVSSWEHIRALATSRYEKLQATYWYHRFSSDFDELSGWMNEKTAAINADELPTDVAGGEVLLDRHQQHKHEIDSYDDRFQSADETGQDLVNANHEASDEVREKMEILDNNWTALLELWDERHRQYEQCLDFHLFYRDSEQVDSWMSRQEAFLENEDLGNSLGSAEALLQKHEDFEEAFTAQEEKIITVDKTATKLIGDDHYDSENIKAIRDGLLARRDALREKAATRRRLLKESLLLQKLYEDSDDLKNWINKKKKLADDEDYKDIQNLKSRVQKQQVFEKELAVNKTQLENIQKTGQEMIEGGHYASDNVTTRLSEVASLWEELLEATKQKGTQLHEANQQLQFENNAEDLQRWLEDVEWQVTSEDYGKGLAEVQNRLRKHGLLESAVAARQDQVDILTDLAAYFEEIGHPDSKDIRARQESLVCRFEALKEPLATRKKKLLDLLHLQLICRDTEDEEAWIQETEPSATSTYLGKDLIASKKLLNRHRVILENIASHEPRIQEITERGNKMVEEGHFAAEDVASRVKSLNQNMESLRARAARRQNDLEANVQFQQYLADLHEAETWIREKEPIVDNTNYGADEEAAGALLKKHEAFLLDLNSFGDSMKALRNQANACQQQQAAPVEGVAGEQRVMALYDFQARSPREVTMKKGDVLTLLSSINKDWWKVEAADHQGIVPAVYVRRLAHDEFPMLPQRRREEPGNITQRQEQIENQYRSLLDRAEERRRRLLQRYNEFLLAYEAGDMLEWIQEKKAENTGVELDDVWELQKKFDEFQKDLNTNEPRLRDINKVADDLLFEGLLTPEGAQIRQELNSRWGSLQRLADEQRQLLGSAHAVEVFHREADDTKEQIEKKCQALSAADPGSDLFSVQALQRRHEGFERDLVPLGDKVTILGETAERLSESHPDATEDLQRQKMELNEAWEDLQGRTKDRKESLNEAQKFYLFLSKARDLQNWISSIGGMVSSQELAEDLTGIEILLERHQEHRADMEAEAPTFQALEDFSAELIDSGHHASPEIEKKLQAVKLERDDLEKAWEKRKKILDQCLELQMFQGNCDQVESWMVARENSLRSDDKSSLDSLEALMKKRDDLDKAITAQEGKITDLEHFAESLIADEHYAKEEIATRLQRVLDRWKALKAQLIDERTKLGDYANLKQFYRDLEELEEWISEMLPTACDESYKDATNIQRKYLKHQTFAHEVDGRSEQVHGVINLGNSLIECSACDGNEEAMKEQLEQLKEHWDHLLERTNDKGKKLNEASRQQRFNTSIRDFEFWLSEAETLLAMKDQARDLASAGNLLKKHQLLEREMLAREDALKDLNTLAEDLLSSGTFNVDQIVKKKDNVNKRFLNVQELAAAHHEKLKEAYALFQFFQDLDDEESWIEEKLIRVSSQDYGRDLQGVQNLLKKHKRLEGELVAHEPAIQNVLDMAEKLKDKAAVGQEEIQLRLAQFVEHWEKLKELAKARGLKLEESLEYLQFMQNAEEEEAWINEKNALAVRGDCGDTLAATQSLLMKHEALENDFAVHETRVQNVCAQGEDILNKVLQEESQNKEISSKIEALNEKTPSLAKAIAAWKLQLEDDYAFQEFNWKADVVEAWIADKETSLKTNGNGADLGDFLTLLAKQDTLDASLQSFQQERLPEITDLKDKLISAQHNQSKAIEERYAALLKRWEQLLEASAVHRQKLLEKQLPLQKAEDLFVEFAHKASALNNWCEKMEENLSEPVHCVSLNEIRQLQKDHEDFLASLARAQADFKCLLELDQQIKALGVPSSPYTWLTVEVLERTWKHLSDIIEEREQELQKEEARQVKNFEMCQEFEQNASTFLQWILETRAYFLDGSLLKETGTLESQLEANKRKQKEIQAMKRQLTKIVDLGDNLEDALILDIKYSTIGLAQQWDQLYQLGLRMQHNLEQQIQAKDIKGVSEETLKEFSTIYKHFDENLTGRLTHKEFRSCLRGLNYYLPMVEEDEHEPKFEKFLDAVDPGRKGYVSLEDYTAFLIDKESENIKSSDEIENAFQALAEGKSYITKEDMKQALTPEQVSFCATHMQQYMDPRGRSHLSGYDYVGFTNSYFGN
human erythrocyte spectrin, sequence (P11277 whole entry, chain 2 of 2): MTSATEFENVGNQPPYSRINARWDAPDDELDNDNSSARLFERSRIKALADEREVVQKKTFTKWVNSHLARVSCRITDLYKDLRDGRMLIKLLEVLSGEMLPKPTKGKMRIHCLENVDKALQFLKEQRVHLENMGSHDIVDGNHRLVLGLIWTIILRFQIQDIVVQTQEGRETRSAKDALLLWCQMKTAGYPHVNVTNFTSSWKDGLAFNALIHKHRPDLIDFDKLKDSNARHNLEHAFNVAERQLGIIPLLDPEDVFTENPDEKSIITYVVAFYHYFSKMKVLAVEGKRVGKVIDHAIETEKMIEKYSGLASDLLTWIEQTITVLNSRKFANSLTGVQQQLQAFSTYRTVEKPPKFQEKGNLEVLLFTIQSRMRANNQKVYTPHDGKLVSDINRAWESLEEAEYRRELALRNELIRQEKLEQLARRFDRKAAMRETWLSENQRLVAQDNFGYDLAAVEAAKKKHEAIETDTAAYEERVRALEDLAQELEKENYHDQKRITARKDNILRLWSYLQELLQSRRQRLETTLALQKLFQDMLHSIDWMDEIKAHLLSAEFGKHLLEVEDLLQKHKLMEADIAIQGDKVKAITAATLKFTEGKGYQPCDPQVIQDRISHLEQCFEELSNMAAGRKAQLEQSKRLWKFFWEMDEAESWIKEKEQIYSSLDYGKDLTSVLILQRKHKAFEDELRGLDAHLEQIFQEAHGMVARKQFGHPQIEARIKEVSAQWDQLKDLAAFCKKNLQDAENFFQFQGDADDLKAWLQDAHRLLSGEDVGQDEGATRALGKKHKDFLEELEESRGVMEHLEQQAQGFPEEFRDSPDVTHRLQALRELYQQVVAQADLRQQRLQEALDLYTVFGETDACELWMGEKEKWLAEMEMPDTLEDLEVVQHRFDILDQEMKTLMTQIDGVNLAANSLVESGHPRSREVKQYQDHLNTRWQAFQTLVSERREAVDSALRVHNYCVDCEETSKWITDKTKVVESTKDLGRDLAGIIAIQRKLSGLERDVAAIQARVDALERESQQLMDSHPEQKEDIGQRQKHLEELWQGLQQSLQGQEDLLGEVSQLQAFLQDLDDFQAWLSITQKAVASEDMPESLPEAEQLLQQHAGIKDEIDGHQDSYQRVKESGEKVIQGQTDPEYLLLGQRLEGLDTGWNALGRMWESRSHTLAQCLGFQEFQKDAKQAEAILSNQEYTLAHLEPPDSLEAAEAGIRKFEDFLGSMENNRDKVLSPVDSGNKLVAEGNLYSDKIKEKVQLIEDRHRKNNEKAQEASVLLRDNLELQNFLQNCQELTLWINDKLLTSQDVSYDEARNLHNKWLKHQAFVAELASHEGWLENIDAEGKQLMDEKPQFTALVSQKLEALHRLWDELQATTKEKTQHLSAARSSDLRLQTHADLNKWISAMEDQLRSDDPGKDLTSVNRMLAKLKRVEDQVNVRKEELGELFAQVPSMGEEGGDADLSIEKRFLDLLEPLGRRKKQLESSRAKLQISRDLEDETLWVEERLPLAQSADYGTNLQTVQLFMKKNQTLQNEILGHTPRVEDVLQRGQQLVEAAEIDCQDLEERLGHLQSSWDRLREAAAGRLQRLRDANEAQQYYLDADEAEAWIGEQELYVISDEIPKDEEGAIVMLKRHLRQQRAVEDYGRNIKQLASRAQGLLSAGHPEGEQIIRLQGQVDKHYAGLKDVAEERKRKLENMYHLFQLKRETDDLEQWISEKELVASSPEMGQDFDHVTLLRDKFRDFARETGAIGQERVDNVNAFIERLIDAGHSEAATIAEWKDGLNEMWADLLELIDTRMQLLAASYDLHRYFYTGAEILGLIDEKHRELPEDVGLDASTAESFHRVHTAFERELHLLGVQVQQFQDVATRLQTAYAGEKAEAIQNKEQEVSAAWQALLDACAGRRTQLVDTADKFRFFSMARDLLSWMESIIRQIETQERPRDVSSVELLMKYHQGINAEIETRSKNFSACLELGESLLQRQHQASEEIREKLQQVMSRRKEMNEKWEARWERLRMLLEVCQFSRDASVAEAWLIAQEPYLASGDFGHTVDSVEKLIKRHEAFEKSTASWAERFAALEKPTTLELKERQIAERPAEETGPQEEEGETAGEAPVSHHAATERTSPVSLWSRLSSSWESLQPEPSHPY

[2] = molecular target: chicken skeletal muscle actin (chicken, UniProt P68139 1-377); assay: co-sedimentation

Row | Kd [1] | Kd [2] | stoichiometry N [2] | Binder
1 | 104 nM | – | – | B1
2 | – | 283 nM | ~0.143 M/M (adducin to actin) and 0.16 M/M (adducin to actin) | B2
